The assay has as its target CD33 on U937 cells (UniProt P20138). The assay can be described thus: cell-based or functional assay.

CD33 on U937 cells, sequence (P20138 18-364 limits assumed): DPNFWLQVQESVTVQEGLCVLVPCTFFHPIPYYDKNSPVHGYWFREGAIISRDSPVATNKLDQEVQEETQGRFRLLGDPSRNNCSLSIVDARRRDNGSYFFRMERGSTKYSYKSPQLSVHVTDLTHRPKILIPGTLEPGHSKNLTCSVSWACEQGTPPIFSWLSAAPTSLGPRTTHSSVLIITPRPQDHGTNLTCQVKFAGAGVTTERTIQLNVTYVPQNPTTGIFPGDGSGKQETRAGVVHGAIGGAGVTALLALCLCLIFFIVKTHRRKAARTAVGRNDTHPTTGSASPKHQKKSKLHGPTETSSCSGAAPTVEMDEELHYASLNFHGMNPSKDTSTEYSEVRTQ

Consider anti-CD33 antibody P67.6, for which the CD33 % surface expression, 0 min stood at 100%; the CD33 % surface expression, 15 min stood at 79%; the CD33 % surface expression, 30 min is 72%; the CD33 % surface expression, 45 min is 68%. The CD33 % surface expression, 90 min amounted to 53%; the CD33 % surface expression, 120 min was found to be 48%; the MFI of pH sensitive dye, CD33 complexes, 0 hours worked out at 20.8; the MFI of pH sensitive dye, CD33 complexes, 4 hours came out at 26. This substance had an MFI of pH sensitive dye, CD33 complexes, 24 hours of 31.9.

The values are drawn from patent US20250019432A1.
